Results reported in patent publication US20120308570A1, “METHODS FOR TREATING DISEASES” (priority 2009, published 2012).

T1: SSB-2ΔSB (recombinant murine SSB-2 SPRY domain, residues 12-224) (mouse, UniProt O88838 12-224)
T1 construct: 226 residues in total; expressed as GST fusion in E. coli, GST cleaved off with thrombin; 15N-labelled for NMR; coupled to NHS-Sepharose for pull-downs; also called SPSB2
T1 sequence: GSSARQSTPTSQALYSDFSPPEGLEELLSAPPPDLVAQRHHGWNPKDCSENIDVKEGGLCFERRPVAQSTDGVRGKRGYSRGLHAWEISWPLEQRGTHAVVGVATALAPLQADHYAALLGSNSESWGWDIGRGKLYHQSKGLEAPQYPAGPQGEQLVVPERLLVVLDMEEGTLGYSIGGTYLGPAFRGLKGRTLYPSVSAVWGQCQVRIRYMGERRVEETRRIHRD

T2: full-length iNOS protein (endogenous, from LPS/IFNγ-treated mouse bone marrow-derived macrophages) (mouse, UniProt P29477 1-1144)
T2 construct: Not purified: present in macrophage lysates; Detected by Western blot with anti-iNOS antibody; also called NOS2; inducible nitric oxide synthase
T2 sequence: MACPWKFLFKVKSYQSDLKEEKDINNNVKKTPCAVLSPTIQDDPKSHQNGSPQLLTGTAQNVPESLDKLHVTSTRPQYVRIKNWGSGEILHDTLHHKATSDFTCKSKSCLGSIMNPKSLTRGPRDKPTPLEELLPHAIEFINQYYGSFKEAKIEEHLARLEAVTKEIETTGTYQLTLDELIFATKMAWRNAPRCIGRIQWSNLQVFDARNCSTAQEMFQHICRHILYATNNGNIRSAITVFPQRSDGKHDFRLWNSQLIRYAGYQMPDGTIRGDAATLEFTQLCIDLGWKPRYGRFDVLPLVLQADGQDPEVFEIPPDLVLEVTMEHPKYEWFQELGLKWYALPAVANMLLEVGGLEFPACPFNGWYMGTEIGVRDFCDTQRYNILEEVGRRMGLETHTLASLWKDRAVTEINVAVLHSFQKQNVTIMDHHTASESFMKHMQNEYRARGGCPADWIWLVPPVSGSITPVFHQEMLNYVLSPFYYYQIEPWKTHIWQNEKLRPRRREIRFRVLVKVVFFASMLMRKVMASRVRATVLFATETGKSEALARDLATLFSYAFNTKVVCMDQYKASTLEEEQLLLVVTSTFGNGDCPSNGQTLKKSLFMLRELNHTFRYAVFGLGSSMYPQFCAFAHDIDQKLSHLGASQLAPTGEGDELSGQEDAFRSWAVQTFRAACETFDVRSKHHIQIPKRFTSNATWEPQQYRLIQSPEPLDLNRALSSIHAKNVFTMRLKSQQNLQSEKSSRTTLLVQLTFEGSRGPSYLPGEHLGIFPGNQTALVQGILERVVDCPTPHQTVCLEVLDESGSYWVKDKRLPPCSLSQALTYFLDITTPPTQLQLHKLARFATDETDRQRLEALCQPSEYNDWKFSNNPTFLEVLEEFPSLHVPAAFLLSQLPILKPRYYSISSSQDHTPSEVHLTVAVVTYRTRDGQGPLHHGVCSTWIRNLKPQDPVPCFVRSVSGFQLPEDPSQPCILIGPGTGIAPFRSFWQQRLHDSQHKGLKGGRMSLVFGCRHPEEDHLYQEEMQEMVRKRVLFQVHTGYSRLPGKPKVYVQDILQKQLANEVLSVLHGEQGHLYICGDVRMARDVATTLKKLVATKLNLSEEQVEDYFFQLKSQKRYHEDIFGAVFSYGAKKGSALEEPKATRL

B1: Flag-tagged SSB-1 transgene product (a.a. 2-274), in BMDM of Ssb-1 T/+ mice (other)
chain: DYKDDDDKGQKVTGGIKTVDMRDPTYRPLKQELQGLDYCKPTRLDLLLDMPPVSYDVQLLHSWNNNDRSLNVFVKEDDKLIFHRHPVAQSTDAIRGKVGYTRGLHVWQITWAMRQRGTHAVVGVATADAPLHSVGYTTLVGNNHESWGWDLGRNRLYHDGKNQPSKTYPAFLEPDETFIVPDSFLVALDMDDGTLSFIVDGQYMGVAFRGLKGKKLYPVVSAVWGHCEIRMRYLNGLDPEPLPLMDLCRRSVRLALGKERLGAIPALPLPASLKAYLLYQ
notes: The printed end of the range may exceed the entry's length; also called full-length SSB-1
B2: Flag-tagged SSB-1ΔSB transgene product (a.a. 2-233, without the SOCS box), in BMDM of Ssb-1ΔSB T/+ mice (other)
chain: DYKDDDDKGQKVTGGIKTVDMRDPTYRPLKQELQGLDYCKPTRLDLLLDMPPVSYDVQLLHSWNNNDRSLNVFVKEDDKLIFHRHPVAQSTDAIRGKVGYTRGLHVWQITWAMRQRGTHAVVGVATADAPLHSVGYTTLVGNNHESWGWDLGRNRLYHDGKNQPSKTYPAFLEPDETFIVPDSFLVALDMDDGTLSFIVDGQYMGVAFRGLKGKKLYPVVSAVWGHCEIRMRYLNGLDPE
notes: also called SOCS box-deleted SSB-1
B3: Flag-tagged SSB-2 transgene product (a.a. 3-265), in BMDM of Ssb-2 T/+ mice (other)
chain: DYKDDDDKQTALARGSSSTPTSQALYSDFSPPEGLEELLSAPPPDLVAQRHHGWNPKDCSENIDVKEGGLCFERRPVAQSTDGVRGKRGYSRGLHAWEISWPLEQRGTHAVVGVATALAPLQADHYAALLGSNSESWGWDIGRGKLYHQSKGLEAPQYPAGPQGEQLVVPERLLVVLDMEEGTLGYSIGGTYLGPAFRGLKGRTLYPSVSAVWGQCQVRIRYMGERRVEEPQSLLHLSRLCVRHALGDTRLGQISTLPLPPAMKRYLLYK
notes: The printed end of the range may exceed the entry's length; also called full-length SSB-2
B4: Flag-tagged SSB-2ΔSB transgene product (a.a. 2-224, without the SOCS box), in BMDM of Ssb-2ΔSB T/+ mice (other)
chain: DYKDDDDKGQTALARGSSSTPTSQALYSDFSPPEGLEELLSAPPPDLVAQRHHGWNPKDCSENIDVKEGGLCFERRPVAQSTDGVRGKRGYSRGLHAWEISWPLEQRGTHAVVGVATALAPLQADHYAALLGSNSESWGWDIGRGKLYHQSKGLEAPQYPAGPQGEQLVVPERLLVVLDMEEGTLGYSIGGTYLGPAFRGLKGRTLYPSVSAVWGQCQVRIRYMGERRVEE
notes: also called SOCS box-deleted SSB-2
B5: Flag-tagged SSB-2 mutant R100/G101 to alanine (other)
chain: DYKDDDDKMGQTALARGSSSTPTSQALYSDFSPPEGLEELLSAPPPDLVAQRHHGWNPKDCSENIDVKEGGLCFERRPVAQSTDGVRGKRGYSRGLHAWEISWPLEQAATHAVVGVATALAPLQADHYAALLGSNSESWGWDIGRGKLYHQSKGLEAPQYPAGPQGEQLVVPERLLVVLDMEEGTLGYSIGGTYLGPAFRGLKGRTLYPSVSAVWGQCQVRIRYMGERRVEEPQSLLHLSRLCVRHALGDTRLGQISTLPLPPAMKRYLLYK
B6: Flag-tagged SSB-2 mutant V206 to alanine (other)
chain: DYKDDDDKMGQTALARGSSSTPTSQALYSDFSPPEGLEELLSAPPPDLVAQRHHGWNPKDCSENIDVKEGGLCFERRPVAQSTDGVRGKRGYSRGLHAWEISWPLEQRGTHAVVGVATALAPLQADHYAALLGSNSESWGWDIGRGKLYHQSKGLEAPQYPAGPQGEQLVVPERLLVVLDMEEGTLGYSIGGTYLGPAFRGLKGRTLYPSVSAAWGQCQVRIRYMGERRVEEPQSLLHLSRLCVRHALGDTRLGQISTLPLPPAMKRYLLYK
B7: Flag-tagged SSB-2 mutant Y120 to alanine (other)
chain: DYKDDDDKMGQTALARGSSSTPTSQALYSDFSPPEGLEELLSAPPPDLVAQRHHGWNPKDCSENIDVKEGGLCFERRPVAQSTDGVRGKRGYSRGLHAWEISWPLEQRGTHAVVGVATALAPLQADHAAALLGSNSESWGWDIGRGKLYHQSKGLEAPQYPAGPQGEQLVVPERLLVVLDMEEGTLGYSIGGTYLGPAFRGLKGRTLYPSVSAVWGQCQVRIRYMGERRVEEPQSLLHLSRLCVRHALGDTRLGQISTLPLPPAMKRYLLYK

Each binder was assayed against T1, SSB-2ΔSB (recombinant murine SSB-2 SPRY …) (assay: ITC, 25 C, peptide injected into SSB-2ΔSB).
Procedure: FIG. 3. Typical ITC raw data and titration curves for SSB-2 and iNOS peptide interactions. Titration curves were fitted using the “One Set of Sites” model in MicroCal Origin.
Wild-type and mutant iNOS peptides (Table 2), corresponding to Lys19-Thr31 of mouse iNOS, were synthesized by GL Biochem (Shanghai) Ltd. These peptides were N-terminal acetylated and C-terminal amidated. All ITC measurements were carried out at 25° C. using a Microcal omega VP-ITC (Microcal Inc., Northampton, Mass.). SSB-2ΔSB was dialysed against buffer (100 mM TrisHCl, 150 mM NaCl, pH 8.0), and wild-type and mutant iNOS N-terminal peptides were prepared in the same buffer from 5 mM stocks. Solutions of 5 to 10 μM SSB-2ΔSB in the cell were titrated by injection of a total of 290 μL of 50-200 μM of iNOS peptides. Data analysis was performed using the evaluation software, MicroCal Origin version 5.0. All curves were fitted using the nonlinear least-squares fitter and the “One Set of Sites” model.
With Ac-KEAKDINNNVKKT-NH2 [iNOS N-terminal peptide II, Ac-KEAKDINNNVKKT-NH2] the Kd was 14 nM. For Ac-KEEADINNNVKKT-NH2 [iNOS N-terminal peptide III, Ac-KEEADINNNVKKT-NH2], the Kd was 127 nM. Ac-KEAADINNNVKKT-NH2 [iNOS N-terminal peptide IV, Ac-KEAADINNNVKKT-NH2] gave a Kd of 65.4 nM. Ac-KEEKDINANVKKT-NH2 [iNOS N-terminal peptide IX, Ac-KEEKDINANVKKT-NH2] gave a Kd of 826 nM. Work on Ac-KEEKAINNNVKKT-NH2 [iNOS N-terminal peptide V, Ac-KEEKAINNNVKKT-NH2] yielded a Kd of 21600 nM. Ac-KEEKDANNNVKKT-NH2 [iNOS N-terminal peptide VI, Ac-KEEKDANNNVKKT-NH2] gave a Kd of 23.5 nM. With Ac-KEEKDIANNVKKT-NH2 [iNOS N-terminal peptide VII, Ac-KEEKDIANNVKKT-NH2] the Kd was 17200 nM. In the case of Ac-KEEKDIQNNVKKT-NH2 [iNOS N-terminal peptide VIII, Ac-KEEKDIQNNVKKT-NH2], the Kd is reported as 40500 nM. Ac-KEEKDINNNAKAT-NH2 [iNOS N-terminal peptide XIV, Ac-KEEKDINNNAKAT-NH2] showed a Kd of 180 nM.

These binders were tested against T2, full-length iNOS protein (endogenous, …) (assay: anti-Flag immunoprecipitation from transgenic BMDM, anti-iNOS re-blot).
Procedure: Cells were incubated with IFNγ and LPS as described, and lysed in KALB lysis buffer (Nicholson et al., 1995) containing protease inhibitors (Complete Cocktail tablets, Roche), 1 mM phenylmethylsulphonyl fluoride, 1 mM Na₃VO₄ and 1 mM NaF. Proteins were immunoprecipitated using anti-Flag antibody conjugated to Sepharose (M2; EASTMAN KODAK). Proteins were separated by sodium dodecyl sulphatepolyacrylamide gel electrophoresis (SDS-PAGE) under reducing conditions and electrophoretically transferred to Biotrace PVDF membranes (Pall Corp. Ann Arbor, Mich.). Membranes were blocked overnight in 10% w/v skim milk and incubated with primary antibody for 2 h. Antibody binding was visualized with either peroxidase-conjugated goat anti-rat immunoglobulin (Southern Biotech) or peroxidase-conjugated sheep anti-rabbit immunoglobulin (Chemicon, Melbourne, Australia), and the enhanced chemiluminescence (ECL) system (Amersham, Little Chalfont, Buckinghamshire, UK). To re-blot, the membrane was first stripped of antibodies in 0.1 M glycine, pH 2.9.
As genetic deletion of SSB-2 appeared to result in elevation of iNOS levels, it was tested whether artificially increasing SSB levels could correspondingly down-regulate iNOS expression. BMDM were generated from mice expressing either a Flag-tagged Ssb-1 or Ssb-2 transgene under a constitutive promoter (Ssb-1^{T/+}, Ssb-2^{T/+}) and from wild-type littermate control mice. […] Macrophage expression of the SSB transgenes was confirmed by anti-FLAG immunoprecipitation and Western blot (FIGS. 9C and 10C, top panels).
B1: binds. B2: binds. B3: binds. B4: binds.

These binders were tested against T2, full-length iNOS protein (endogenous, …) (assay: anti-Flag co-immunoprecipitation, anti-iNOS Western blot).
Excerpt: FIG. 6. Interaction between iNOS and SSB-1, -2, and -4 and SSB-2 residues affecting 10 iNOS binding. (A) iNOS interacts preferentially with SSB-2 and SSB-4. 293T cells were transiently transfected with vector alone or cDNA encoding either Flag-tagged SSB-1, SSB-2, SSB-3 or SSB-4. Cells were lysed, and mixed with BMDM lysates from cells induced to express iNOS. Flag-tagged proteins were immunoprecipitated using anti-Flag antibodies (M2-beads) and separated by SDSPAGE. Co-immunoprecipitation of iNOS was detected by Western blot with anti-iNOS antibodies (upper panel). Membranes were stripped and reprobed with rat anti-Flag antibodies (middle panel). Comparative expression of Flag-tagged proteins in 293T lysates is shown by Western blot (lower panel). (B) SSB-2 residues affecting iNOS binding. Residues in the SSB-2 SPRY domain were mutated to Ala or Phe (for Y120) based on SSB-2 structure and sequence conservation. 293T cells 20 were transiently transfected with cDNA encoding Flag-tagged wild-type or mutant SSB-2. Cells were lysed, and mixed with BMDM lysates from cells induced to express iNOS. Flag-tagged proteins were immunoprecipitated using anti-Flag antibodies and separated by SDS-PAGE. Coimmunoprecipitation of iNOS was detected by Western blot with anti-iNOS antibodies.
B5: no binding. B6: no binding. B7: no binding.
